The data set concerns EspM (lysate) (Mycobacterium marinum M (ATCC BAA-535)). Nature of the data set: DNA pull-down, LC-MS/MS. The note with it: 5' BiotinTEG on both primers; EspM EMSA: 10 mM Tris-HCl pH 8.0, 40 mM KCl, 2.5 mM DTT, 0.25% Tween-20, 0.02 mg/mL salmon sperm DNA (listed as 0.5x binding buffer), ~70 ng probe, 20-25 min ….

For whiB6 promoter bait (1 kb), the binding signal (fold enrichment over rpoA bait (N5)) is over 64.

(Values after publication PMC7002343.)
